According to the supplement of paper PMC10126150:
± gives the standard deviation of the averaged measurements.

test system: ATP; experiment: switch fluorescence ratio, 500 uM ATP over buffer (Cy3 cluster intensity, sum of 5 cycles each) (fold (ratio)); higher = stronger signal-on switching upon ATP binding; sequences stand for … in TCGTCGGCAGCGTCAGATGTGTATAAGAGACAGTTTTTTTTTTTTTTTTTTTTTTTTT…TC; settings: aptamer strand: ATP DNA aptamer (quencher-CACCTGGGGGAGTATTGCGGAGGAAGG + anchor), 100 nM annealed; ATP concentration: 500 uM
Summary of the method: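 The fluorescence ratio divides summed target-cycle Cy3 intensity by summed buffer-cycle Cy3 intensity for each cluster and is averaged per switch-domain sequence. Cy3-labelled switching-strand clusters on a modified Illumina MiSeq flow-cell were annealed to 100 nM quencher-labelled ATP aptamer, then imaged in selection buffer and again after 15 min with 500 uM ATP at 22 °C. Five such cycles were run, with NaOH stripping and re-annealing between them, and clusters outside 100-1000 RFU were excluded.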
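Further: ATP exposure 15 min at 22 °C before imaging.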

| Sequence | switch fluorescence ratio |
| --- | --- |
| CCGGGAAAGC | 1.18 ± 0.25 |
| CCGGGAGGGG | 1.11 ± 0.12 |
| CCGGGAGTCG | 1.06 ± 0.017 |
| CCGGGCAAGA | 5.5 ± 1.4 |
| CCGGGCCGAA | 1.05 ± 0.017 |
| CCGGGGGAAT | 1.13 ± 0.16 |
| CCGGGGGTTT | 1.036 ± 0.0054 |
| CCGGGGTATT | 1.07 ± 0.033 |
| CCGGGGTGTA | 1.32 ± 0.36 |
| CCGGGGTTAG | 1.38 ± 0.42 |
| CCGGGGTTTT | 1.11 ± 0.22 |
| CCGGGTATGG | 1.02 ± 0.016 |
| CCGGGTGGGG | 1.04 ± 0.03 |
| CCGGTAGGCC | 0.978 ± 0.033 |
| CCGGTGGCTG | 1 ± 0.033 |
| CCGGTTGTGA | 1.177 ± 0.0083 |
| CCGGTTTCGT | 1.26 ± 0.26 |
| CCGTAAGAAT | 1.37 ± 0.055 |
| CCGTACGGGG | 1.029 ± 0.0055 |
| CCGTACGTCA | 1.77 ± 0.041 |
| CCGTATATGT | 1.19 ± 0.029 |
| CCGTCAGAGT | 1.09 ± 0.014 |
| CCGTCAGGTT | 1.012 ± 0.005 |
| CCGTCGCTTA | 2.36 ± 0.37 |
| CCGTGAGAAT | 1.07 ± 0.018 |

| Sequence | switch fluorescence ratio |
| --- | --- |
| CCGTGCCGTT | 0.948 ± 0.024 |
| CCGTGCTTTT | 1.08 ± 0.047 |
| CCGTGGGGAT | 1.24 ± 0.26 |
| CCGTTATTAG | 1.3518 ± 0.0007 |
| CCGTTCAGGG | 1.001 ± 0.0045 |
| CCGTTGAAAT | 1.22 ± 0.011 |
| CCGTTGAGTG | 0.995 ± 0.024 |
| CCGTTGATGT | 1.014 ± 0.002 |
| CCGTTGGATT | 0.983 ± 0.01 |
| CCGTTGGTTT | 0.9937 ± 0.0088 |
| CCGTTGTCCA | 1.02 ± 0.032 |
| CCGTTTGGTT | 0.995 ± 0.064 |
| CCTAAAAGTT | 1.01 ± 0.05 |
| CCTAAAGTTT | 0.983 ± 0.014 |
| CCTAACACGA | 1.11 ± 0.027 |
| CCTAATCAAC | 1.13 ± 0.034 |
| CCTAATTGAA | 0.9728 ± 0.0041 |
| CCTACAGTGA | 1.752 ± 0.015 |
| CCTACTAGAT | 1.142 ± 0.007 |
| CCTAGCCCTT | 1.05 ± 0.054 |
| CCTAGGTAAA | 0.993 ± 0.034 |
| CCTAGTTAGT | 1.02 ± 0.034 |
| CCTATATACG | 1.13 ± 0.042 |
| CCTATGAATG | 0.987 ± 0.018 |
| CCTATTACA | 1.03 ± 0.026 |

| Sequence | switch fluorescence ratio |
| --- | --- |
| CCTATTGGGT | 1.02 ± 0.013 |
| CCTATTTATT | 1.01 ± 0.02 |
| CCTCAGCGGA | 3.35 ± 0.42 |
| CCTCATCGAG | 1.07 ± 0.024 |
| CCTCATTCGG | 1.06 ± 0.021 |
| CCTCGATGTA | 1.08 ± 0.027 |
| CCTCGGGAAA | 1.06 ± 0.1 |
| CCTCGGTAGG | 1.02 ± 0.0051 |
| CCTCTAAGTT | 1.27 ± 0.054 |
| CCTCTGGCGC | 3.9 ± 0.3 |
| CCTGAAATAT | 2.53 ± 1.7 |
| CCTGAAGTTG | 1.18 ± 0.21 |
| CCTGAGGAGA | 1.03 ± 0.015 |
| CCTGATTTGA | 0.989 ± 0.02 |
| CCTGCATTTG | 1.0933 ± 0.00019 |
| CCTGCCGTTA | 1.27 ± 0.078 |
| CCTGCTGTTC | 1.51 ± 0.09 |
| CCTGCTTTTT | 1.02 ± 0.021 |
| CCTGGACTCG | 1.02 ± 0.03 |
| CCTGGAGAGT | 1.02 ± 0.059 |
| CCTGGCCTGC | 1.078 ± 0.01 |
| CCTGGCGATG | 1.38 ± 0.053 |
| CCTGGGAAGA | 1.02 ± 0.017 |
| CCTGGGCGGT | 1.32 ± 0.031 |
| CCTGGGGGCC | 1 ± 0.013 |

| Sequence | switch fluorescence ratio |
| --- | --- |
| CCTGGGGGG | 1.02 ± 0.045 |
| CCTGGTACGT | 1.01 ± 0.034 |
| CCTGGTCGGC | 1.02 ± 0.035 |
| CCTGGTGGAC | 1.11 ± 0.058 |
| CCTGTATTTT | 1.011 ± 0.0077 |
| CCTGTTATGG | 1.01 ± 0.032 |
| CCTGTTCCGA | 1.19 ± 0.028 |
| CCTGTTTGTT | 0.967 ± 0.038 |
| CCTTAAAAAA | 1.04 ± 0.014 |
| CCTTAGGTAT | 1.011 ± 0.0094 |
| CCTTAGTGAC | 1.36 ± 0.069 |
| CCTTAGTTTT | 0.983 ± 0.022 |
| CCTTATAGTT | 0.995 ± 0.023 |
| CCTTATCCG | 1.07 ± 0.068 |
| CCTTATGCCA | 1.09 ± 0.061 |
| CCTTATTGAA | 0.979 ± 0.021 |
| CCTTCCGTTC | 2.66 ± 0.53 |
| CCTTCCTACG | 2.36 ± 0.54 |
| CCTTCGTTGT | 2.85 ± 0.64 |
| CCTTGAACGG | 0.9606 ± 0.005 |
| CCTTGAATGG | 1.05 ± 0.005 |
| CCTTGCCGGT | 1.022 ± 0.0094 |
| CCTTGCGGGG | 1.06 ± 0.012 |
| CCTTGCGTTC | 2.68 ± 0.19 |
| CCTTGGGGAT | 1.11 ± 0.12 |

| Sequence | switch fluorescence ratio |
| --- | --- |
| CCTTGGGGGA | 1.14 ± 0.055 |
| CCTTGGGTTT | 1.08 ± 0.13 |
| CCTTGGTATT | 0.998 ± 0.026 |
| CCTTGTTTGG | 1.01 ± 0.011 |
| CCTTTAATGT | 1.01 ± 0.022 |
| CCTTTCGACA | 2.08 ± 0.26 |
| CCTTTCGGGA | 1.73 ± 0.87 |
| CCTTTCTATT | 0.99 ± 0.018 |
| CCTTTGTATT | 1.04 ± 0.031 |
| CCTTTGTTAT | 1.052 ± 0.0082 |
| CCTTTGTTGG | 1.01 ± 0.013 |
| CCTTTTCAGC | 1.12 ± 0.025 |
| CCTTTTTATG | 1.024 ± 0.0028 |
| CCTTTTTATT | 0.9882 ± 0.0064 |
| CCTTTTTGAA | 0.986 ± 0.049 |
| CGAAAAGGCT | 1.01 ± 0.016 |
| CGAAAAGTTT | 0.994 ± 0.023 |
| CGAAAATGGT | 1.04 ± 0.13 |
| CGAAACAGCA | 1.012 ± 0.0064 |
| CGAAAGATGG | 1 ± 0.034 |
| CGAAAGATGT | 0.9857 ± 0.0025 |
| CGAAAGGAA | 1.01 ± 0.011 |
| CGAAATGCGG | 0.982 ± 0.036 |
| CGAACCGTCA | 1.08 ± 0.028 |
| CGAACCTGGA | 1.37 ± 0.076 |

| Sequence | switch fluorescence ratio |
| --- | --- |
| CGAACGGATG | 1.0156 ± 0.00041 |
| CGAACGGATT | 1.06 ± 0.054 |
| CGAACGGTTG | 1.0261 ± 1.1e-05 |
| CGAACGTCAG | 1.04 ± 0.012 |
| CGAACTTGTG | 1.01 ± 0.015 |
| CGAACTTTTG | 0.984 ± 0.018 |
| CGAAGATCGG | 1 ± 0.023 |
| CGAAGCGTCA | 1.081 ± 0.0014 |
| CGAAGGATTG | 0.992 ± 0.015 |
| CGAAGGGAAA | 1.12 ± 0.19 |
| CGAAGGTAGG | 0.9843 ± 0.0049 |
| CGAAGTGGCC | 1.02 ± 0.016 |
| CGAATCGCCT | 1 ± 0.022 |
| CGAATGGCGT | 1.029 ± 0.0063 |
| CGAATTAGAA | 0.982 ± 0.042 |
| CGAATTTTCG | 0.976 ± 0.012 |
| CGACAAGCAG | 1.09 ± 0.026 |
| CGACAATGTA | 1.17 ± 0.018 |
| CGACATCGGA | 1.02 ± 0.017 |
| CGACCGAACA | 1.09 ± 0.014 |
| CGACCGGGGG | 1.11 ± 0.094 |
| CGACGGAAGG | 1.25 ± 0.06 |
| CGACGGTGAA | 1.09 ± 0.022 |
| CGACGTGAGT | 1.036 ± 0.0042 |
| CGACTCGACG | 1.013 ± 0.006 |

| Sequence | switch fluorescence ratio |
| --- | --- |
| CGACTGATAT | 1.078 ± 0.0078 |
| CGACTTTTAG | 0.959 ± 0.021 |
| CGAGAATTGT | 0.9301 ± 0.0053 |
| CGAGAGGAGG | 1.01 ± 0.02 |
| CGAGAGGAGT | 0.997 ± 0.014 |
| CGAGAGGGTG | 1.03 ± 0.02 |
| CGAGATCAAG | 0.971 ± 0.013 |
| CGAGATGGTT | 0.973 ± 0.025 |
| CGAGCAGTAG | 3.57 ± 0.31 |
| CGAGCAGTTA | 1.19 ± 0.074 |
| CGAGCCCTTG | 1.027 ± 0.0065 |
| CGAGCCTGGT | 1.02 ± 0.035 |
| CGAGCCTTAA | 1.09 ± 0.035 |
| CGAGCGGGTA | 0.989 ± 0.028 |
| CGAGCTCTCG | 1.002 ± 0.0075 |
| CGAGGATGTG | 0.964 ± 0.035 |
| CGAGGGAATG | 1.1 ± 0.18 |
| CGAGGGAGCA | 1.01 ± 0.025 |
| CGAGGGATCA | 0.9947 ± 0.0011 |
| CGAGGGCGGG | 0.999 ± 0.016 |
| CGAGGGGGG | 0.997 ± 0.015 |
| CGAGGGGGGT | 1.02 ± 0.027 |
| CGAGGGGGTA | 1.02 ± 0.077 |
| CGAGGGTAGG | 1.04 ± 0.025 |
| CGAGGGTCGG | 1.01 ± 0.042 |

| Sequence | switch fluorescence ratio |
| --- | --- |
| CGAGGGTGAG | 1.01 ± 0.042 |
| CGAGGTAGTT | 0.975 ± 0.026 |
| CGAGGTCAGT | 1.044 ± 0.01 |
| CGAGGTGGCG | 0.958 ± 0.06 |
| CGAGGTTTTC | 0.9817 ± 0.0056 |
| CGAGTAGGAA | 0.984 ± 0.017 |
| CGAGTAGGTT | 1.01 ± 0.011 |
| CGAGTATGGA | 0.9923 ± 0.0042 |
| CGAGTCAGA | 1.067 ± 0.0096 |
| CGAGTCGACG | 0.99 ± 0.07 |
| CGAGTCGCGA | 1.04 ± 0.062 |
| CGAGTGAAAT | 1 ± 0.018 |
| CGAGTGAATC | 1.01 ± 0.019 |
| CGAGTGGAGG | 1.03 ± 0.011 |
| CGAGTGGCGA | 1.077 ± 0.0022 |
| CGAGTGGCGG | 0.968 ± 0.023 |
| CGAGTGGGGA | 1.04 ± 0.041 |
| CGAGTTAATT | 1.014 ± 0.0097 |
| CGAGTTAGGG | 0.9906 ± 0.0021 |
| CGAGTTTTGC | 1.03 ± 0.026 |
| CGAGTTTTTT | 1 ± 0.021 |
| CGATACACGT | 1.04 ± 0.029 |
| CGATAGATGA | 0.993 ± 0.018 |
| CGATATATTA | 0.9874 ± 0.0053 |
| CGATATATTG | 0.988 ± 0.013 |
